Patent publication US20160031972A1 (XIAMEN INNOVAX BIOTECH, published 2016)

What was measured:
[1] = target: T1, RSV F protein in RSV-A2 virus preparation (Western Blot sample) (respiratory syncytial virus A2 strain, UniProt P03420 26-574); assay: Western Blot, non-boiled sample
T1 construct: Loaded boiled (denatured) or non-boiled (non-denatured); also called RSV A2 strain

[2] = target: T2, RSV F protein on Hep2 cells infected with RSV-A2 (immunofluorescent assay) (respiratory syncytial virus A2 strain, UniProt P03420 26-574); assay: immunofluorescence on RSV-A2-infected Hep2 cells, confocal microscopy
T2 construct: whole, on cells

[3] = target: T3, post-F protein (RSV-A2 F protein with P102A, I379V, M447V and fusion peptide positions 137-146 removed, … (respiratory syncytial virus, RSV-A2, UniProt P03420 26-524)); assay: hybridoma screening, RSV-post F enzyme-linked immunosorbent assay
T3 construct: Signal peptide, furin processing and the residue of the HRV 3C site left after cleavage are not described; also called RSV-post F; post-fusion F

B1: monoclonal antibody 5C4 (antibody, V domains shown)
VH: EVQLQQSGAELVKPGASVKLSCTASGFNIKDTFFHWVKQRPEQGLEWIGRIDPADGHTKYDPKFQGKATITADTSSNTAFLQLSSLTSEDTAVYYCATTITAVVPTPYNAMDYWGQGTSVTVSS
VL: DIVLTQSPASLAVSLGQRTTISCRASESVDSFDNSFIHWYQQKPGQPPKLLIFLASSLESGVPARFSGSGSRTDFTLTIDPVEADDAATYYCQQSNEDPFTFGSGTKLEIKR
notes: Mouse hybridoma antibody purified from ascites; kappa light chain; also called 5C4 monoclonal antibody; 5C4 antibody
- binding result [1]: binds
- binding result [2]: binds
- binding result [3]: no binding
